In assay [1] the target is T1, Human dendritic cell–specific ICAM-3–grabbing non-integrin (DC-SIGN; CD209), Q9NNX6.
T1 chain: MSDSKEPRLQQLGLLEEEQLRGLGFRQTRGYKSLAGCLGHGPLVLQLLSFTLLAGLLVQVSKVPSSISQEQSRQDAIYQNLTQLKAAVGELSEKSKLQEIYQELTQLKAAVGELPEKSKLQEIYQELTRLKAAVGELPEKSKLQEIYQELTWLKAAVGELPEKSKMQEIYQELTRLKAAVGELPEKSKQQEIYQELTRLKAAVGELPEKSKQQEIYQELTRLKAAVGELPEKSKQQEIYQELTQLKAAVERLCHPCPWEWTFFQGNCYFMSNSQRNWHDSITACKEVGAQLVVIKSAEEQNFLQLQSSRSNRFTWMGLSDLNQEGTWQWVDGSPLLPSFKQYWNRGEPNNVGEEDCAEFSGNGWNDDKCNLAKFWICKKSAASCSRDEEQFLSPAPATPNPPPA
Description: flow cytometry on cells (hDC-SIGN+/SIGN-R1-/- murine BMDMs). Particulars: type I FcγRs blocked; PBS control = 1; read off a plot. In general terms: In flow cytometry, cells or beads pass a laser one at a time.

Assay [2] has as its target Human neonatal Fc receptor (hFcRn), P55899. Description: SPR; biolayer interferometry (citing paragraph). As to conditions: chain shown with the change. For orientation: SPR reads the build-up and loss of mass on a sensor chip optically.

Chain of Human neonatal Fc receptor (hFcRn), P55899 (P55899 24-297, chain 1 of 2): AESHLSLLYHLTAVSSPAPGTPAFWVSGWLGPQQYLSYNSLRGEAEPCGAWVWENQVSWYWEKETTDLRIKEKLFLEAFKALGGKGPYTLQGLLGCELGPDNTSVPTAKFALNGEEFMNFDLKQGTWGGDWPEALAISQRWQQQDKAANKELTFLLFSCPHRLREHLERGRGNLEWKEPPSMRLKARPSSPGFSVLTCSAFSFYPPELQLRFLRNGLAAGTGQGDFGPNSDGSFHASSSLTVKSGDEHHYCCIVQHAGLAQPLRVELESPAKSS
Chain of Human neonatal Fc receptor (hFcRn), P55899 (chain, as listed by the source, chain 2 of 2): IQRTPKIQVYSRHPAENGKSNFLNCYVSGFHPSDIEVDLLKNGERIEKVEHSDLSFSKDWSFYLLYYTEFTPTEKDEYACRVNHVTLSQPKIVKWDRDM

B1: Wild-type human IgG1 Fc (Fc^WT) M252Y; S254T; T256E; H433K; N434F (protein)
chain: DKTHTCPPCPAPELLGGPSVFLFPPKPKDTLYITREPEVTCVVVDVSHEDPEVKFNWYVDGVEVHNAKTKPREEQYNSTYRVVSVLTVLHQDWLNGKEYKCKVSNKALPAPIEKTISKAKGQPREPQVYTLPPSRDELTKNQVSLTCLVKGFYPSDIAVEWESNGQPENNYKTTPPVLDSDGSFFLYSKLTVDKSRWQQGNVFSCSVMHEALKFHYTQKSLSLSPGK
B1: in assay [1], the response (fold change in MFI (normalized to PBS)) was 1.4. Also, the Kd (commonly the constant that tells how readily two partners part at equilibrium) in assay [2] is 5.2 nM.

The record behind these values is article PMC10866649.
